In FireProtDB (doi:10.1021/bi982427c):

B1: Acyl-CoA-binding protein, P07107 (parent)
chain: MSQAEFDKAAEEVKHLKTKPADEEMLFIYSHYKQATVGDINTERPGMLDFKGKAKWDAWNELKGTSKEDAMKAYIDKVEELKKKYGI

Variants of: B1
Settings: Bos taurus; pH 5.3; 5 °C; GdnHCl; Fluorescence; Sodium acetate 0.02 M; reversible: yes; structure 2ABD; whole UniProt chain shown

| Variant | ddG of mutation (higher = less stable) [kcal/mol] | unfolding free energy [kcal/mol] |
| --- | --- | --- |
| MSQAEFDKAAEEVKHLKTKPADEEMLFIYSHYEQATVGDINTERPGMLDFKGKAKWDAWNELKGTSKEDAMKAYIDKVEELKKKYGI | 1.68 | 6.21 |
| MSQAEFDKAAEEVKHLKTKPAHEEMLFIYSHYKQATVGDINTERPGMLDFKGKAKWDAWNELKGTSKEDAMKAYIDKVEELKKKYGI | 0.56 | 7.33 |
| MSQAEFDKAAEEVKHLKTKPADEEMLFIYSHYKQATVGDINTERPGMLDFKGKAKWDAWNELKGTSKEDAMKAFIDKVEELKKKYGI | -0.27 | 8.16 |
| MSQAEFDKAAEEVKHLKTKPADEEMLFIFSHYKQATVGDINTERPGMLDFKGKAKWDAWNELKGTSKEDAMKAYIDKVEELKKKYGI | 1.06 | 6.83 |
| MSQAEFDKAAEEVKHLKTKPADEEMLFIYSHYKQATVGDINTERPGMLDFKGMAKWDAWNELKGTSKEDAMKAYIDKVEELKKKYGI | -0.18 | 8.07 |
| MSQAEFDKAAEEVKHAKTKPADEEMLFIYSHYKQATVGDINTERPGMLDFKGKAKWDAWNELKGTSKEDAMKAYIDKVEELKKKYGI | 3.1 | 4.79 |
| MSQAEFDKAAEEVKHLKTKPADEEMLFIYSHYKQATVGDINTERPGMLDFKGKAAWDAWNELKGTSKEDAMKAYIDKVEELKKKYGI | 0.86 | 7.03 |
| MSQAEFDKAAEEVKHLKTKPADEEMLFIYSHYRQATVGDINTERPGMLDFKGKAKWDAWNELKGTSKEDAMKAYIDKVEELKKKYGI | 1.83 | 6.06 |
| MSQAEFDKAAEEAKHLKTKPADEEMLFIYSHYKQATVGDINTERPGMLDFKGKAKWDAWNELKGTSKEDAMKAYIDKVEELKKKYGI | 1.69 | 6.2 |
| MSQAEFDKAAEEVKHLKTKPADEEMLFIYSHYAQATVGDINTERPGMLDFKGKAKWDAWNELKGTSKEDAMKAYIDKVEELKKKYGI | 1.02 | 6.87 |
| MSQAEFDKAAEEVKHLKTKPADEEMAFIYSHYKQATVGDINTERPGMLDFKGKAKWDAWNELKGTSKEDAMKAYIDKVEELKKKYGI | 1.02 | 6.87 |
| MSQAEFDKAAEEVKHLKTKPADEEMLFIYSHYKQATVGDINTERAGMLDFKGKAKWDAWNELKGTSKEDAMKAYIDKVEELKKKYGI | 1.4 | 6.49 |
| MSQAEFDKAAEEVKHLKTKPADEEMLFIYSHYKQGTVGDINTERPGMLDFKGKAKWDAWNELKGTSKEDAMKAYIDKVEELKKKYGI | 1.57 | 6.32 |
| MSQAEFDKAAEEVKHLKTKPADEEMLFIYSHYKQATVGDINTERPGMLDFKGKAKWDAWNELKGTSKEDAMKAYIDKVEEAKKKYGI | 3.7 | 4.19 |
| MSQAEFDKAAEEVKHLKTKPADEEMLFIYSHYKQATVGDINTERPGMLDFKGKAKWDAWNELKGTSKEDAMKAAIDKVEELKKKYGI | 4.83 | 3.06 |
| MSQAEFDKAAEEVKHLKTKPADEEMLFIYSHYKAATVGDINTERPGMLDFKGKAKWDAWNELKGTSKEDAMKAYIDKVEELKKKYGI | 3.66 | 4.23 |
| MSQAEFDKAAEEVKHLKTKPADEEMLFIYSHYKQAAVGDINTERPGMLDFKGKAKWDAWNELKGTSKEDAMKAYIDKVEELKKKYGI | 1.09 | 6.8 |
| MSQAEFDKAAEEVKHLKTKAADEEMLFIYSHYKQATVGDINTERPGMLDFKGKAKWDAWNELKGTSKEDAMKAYIDKVEELKKKYGI | 1.07 | 6.82 |
| MSQAEFDKAAEEVKHLKTKPAAEEMLFIYSHYKQATVGDINTERPGMLDFKGKAKWDAWNELKGTSKEDAMKAYIDKVEELKKKYGI | -0.42 | 8.31 |
| MSQAEFDKAAEEVKHLKTKPADEEMLFIYSHYKQATVGDINTERPGMLDFKGKAKWDAWNELKGTSKADAMKAYIDKVEELKKKYGI | 0.36 | 7.53 |
| MSQAEFDKAAEEVKHLKTKPADEEMLFIASHYKQATVGDINTERPGMLDFKGKAKWDAWNELKGTSKEDAMKAYIDKVEELKKKYGI | 2.47 | 5.42 |
| MSQAEFDKAAEEVKHLKTKPADEEMLFIYSHYKQATVGDINTERPGMLDFKGKAKWDAWNELKGTSKEDAMKAYIDKAEELKKKYGI | 1.14 | 6.75 |
| MSQAEFDKAAEEVKHLKTKPADEEMLFIYSHYKQATVGDINTERPGMLDFKGMAMWDAWNELKGTSKEDAMKAYIDKVEELKKKYGI | -1.01 | 8.9 |
| MSQAEFDKAAEEVKHLKTKPADEEMLFIYSHNKQATVGDINTERPGMLDFKGKAKWDAWNELKGTSKEDAMKAYIDKVEELKKKYGI | 1.52 | 6.37 |
| MSQAEADKAAEEVKHLKTKPADEEMLFIYSHYKQATVGDINTERPGMLDFKGKAKWDAWNELKGTSKEDAMKAYIDKVEELKKKYGI | 2.52 | 5.37 |
